{"source": "patent US20260092110A1", "about": "(Kyowa Kirin, published 2026)", "key": {"[1]": {"target": "T1, human MOG (hMOG) expressed on HEK293, Expi293F or L929 cells (human, UniProt Q16653 30-247)", "T1 construct": "also called hMOG/HEK293; hMOG/HEK293F", "T1 chain": "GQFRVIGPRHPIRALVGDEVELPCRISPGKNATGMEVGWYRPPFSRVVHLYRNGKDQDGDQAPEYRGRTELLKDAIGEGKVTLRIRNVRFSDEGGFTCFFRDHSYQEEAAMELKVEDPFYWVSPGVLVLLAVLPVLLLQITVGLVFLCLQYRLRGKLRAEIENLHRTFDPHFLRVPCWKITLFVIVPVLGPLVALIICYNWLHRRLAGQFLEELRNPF", "assay": "flow cytometry on L929 cells expressing human MOG (hMOG/L929); antibody titrated, RPE-labelled goat anti-human antibody", "excerpt": "pEF6_hMOG obtained in Example 5 was introduced to mouse connective tissue-derived fibroblast L929 cells [American Type Culture Collection (ATCC) No.: CCL-1] using HilyMax (manufactured by Dojindo Laboratories). The gene-transfected cells were selected using an antibiotic substance, Blasticidin (manufactured by Invitrogen) and then cloned by the limiting dilution method. Using the L929 cells expressing hMOG on the cell surface (abbreviated as hMOG/L929 below), the reactivities of the bispecific antibodies were analyzed by the method described below.\nThe hMOG/L929 cells were suspended in a Staining Buffer (SB) of PBS containing 0.1% NaN₃ and 1% FBS and dispensed to a round-bottom 96-well plate (manufactured by Becton Dickinson). […] After suspending the pellets, the plate was left to stand at ice temperature for 30 minutes. The supernatants were removed after further centrifugation (2000 rpm, 4° C., two minutes), and the pellets were washed with SB. Then, 1 μg/mL RPE fluorescently labeled goat anti-human antibody (manufactured by Southern Biotech) was added, and the plate was incubated at ice temperature for 30 minutes. After washing with SB, the cells were suspended in SB, and the fluorescence intensities of the cells were measured with a flow cytometer FACS CANTO II (manufactured by Becton Dickinson). The results are shown in FIGS. 12A to 12C and FIGS. 13A and 13B."}, "[2]": {"target": "extracellular domain protein of human MOG to which FLAG-Fc is added at the C-terminus (hMOG-FLAG-Fc) (human)", "assay": "phage ELISA"}, "[3]": {"target": "T1, human MOG (hMOG) expressed on HEK293, …", "assay": "phage clone on hMOG/Expi293F cells"}}}
{"binder": "AVM IgG4PE(R409K)_MOG01dscFv2 antibody (bispecific antibody, also called pCI-AVM-hLG4PE(R409K)_MOG01scFv2) heavy: not shown light: QFVLSQPNSVSTNLGSTVKLSCKRSTGNIGSNYVSWYQQHEGRSPTTMIYRDDKRPDGVPDRFSGSIDRSSDSALLTINNVQTEDEADYFCQSYSSGINIFGGGTKLTVLGQPKAAPSVTLFPPSSEELQANKATLVCLISDFYPGAVTVAWKADSSPVKAGVETTTPSKQSNNKYAASSYLSLTPEQWKSHRSYSCQVTHEGSTVEKTVAPTECS", "values": [{"measurement": "binding result", "setting": "[1]", "result": "binds"}]}
{"binder": "AVM IgG4PE(R409K)_MOG01dscFv8 antibody (bispecific antibody, also called pCI-AVM-hLG4PE(R409K)_MOG01scFv8) heavy: not shown light: QFVLSQPNSVSTNLGSTVKLSCKRSTGNIGSNYVSWYQQHEGRSPTTMIYRDDKRPDGVPDRFSGSIDRSSDSALLTINNVQTEDEADYFCQSYSSGINIFGGGTKLTVLGQPKAAPSVTLFPPSSEELQANKATLVCLISDFYPGAVTVAWKADSSPVKAGVETTTPSKQSNNKYAASSYLSLTPEQWKSHRSYSCQVTHEGSTVEKTVAPTECS", "values": [{"measurement": "binding result", "setting": "[1]", "result": "binds"}]}
{"binder": "AVM IgG4PE(R409K)_AVMsscFv ANTIBODY (antibody) heavy 1: EVQLVESGGGLVQPGRSLKLSCAASGFTFSNYAMAWVRRAPTKGLEWVASISNGGGNTYYRDSVKGRFTISRDDAKNTLYLQMDSLRSEDTATYYCARHGNYIYYGSFFDYWGQGVMVTVSSASTKGPSVFPLAPCSRSTSESTAALGCLVKDYFPEPVTVSWNSGALTSGVHTFPAVLQSSGLYSLSSVVTVPSSSLGTKTYTCNVDHKPSNTKVDKRVESKYGPPCPPCPAPEFEGGPSVFLFPPKPKDTLMISRTPEVTCVVVDVSQEDPEVQFNWYVDGVEVHNAKTKPREEQFNSTYRVVSVLTVLHQDWLNGKEYKCKVSNKGLPSSIEKTISKAKGQPREPQVYTLPPCQEEMTKNQVSLWCLVKGFYPSDIAVEWESNGQPENNYKTTPPVLDSDGSFFLYSKLTVDKSRWQEGNVFSCSVMHEALHNHYTQKSLSLSLGGGSGGGGSGGGGSGGGGSEVQLVESGGGLVQPGRSLKLSCAASGFTFSNYAMAWVRRAPTKGLEWVASISNGGGNTYYRDSVKGRFTISRDDAKNTLYLQMDSLRSEDTATYYCARHGNYIYYGSFFDYWGQGVMVTVSSGGGGSGGRASGGGGSQFVLSQPNSVSTNLGSTVKLSCKRSTGNIGSNYVSWYQQHEGRSPTTMIYRDDKRPDGVPDRFSGSIDRSSDSALLTINNVQTEDEADYFCQSYSSGINIFGGGTKLTVLDYKDDDDK heavy 2: EVQLVESGGGLVQPGRSLKLSCAASGFTFSNYAMAWVRRAPTKGLEWVASISNGGGNTYYRDSVKGRFTISRDDAKNTLYLQMDSLRSEDTATYYCARHGNYIYYGSFFDYWGQGVMVTVSSASTKGPSVFPLAPCSRSTSESTAALGCLVKDYFPEPVTVSWNSGALTSGVHTFPAVLQSSGLYSLSSVVTVPSSSLGTKTYTCNVDHKPSNTKVDKRVESKYGPPCPPCPAPEFEGGPSVFLFPPKPKDTLMISRTPEVTCVVVDVSQEDPEVQFNWYVDGVEVHNAKTKPREEQFNSTYRVVSVLTVLHQDWLNGKEYKCKVSNKGLPSSIEKTISKAKGQPREPQVCTLPPSQEEMTKNQVSLSCAVKGFYPSDIAVEWESNGQPENNYKTTPPVLDSDGSFFLVSKLTVDKSRWQEGNVFSCSVMHEALHNHYTQKSLSLSLGKHHHHHH light: QFVLSQPNSVSTNLGSTVKLSCKRSTGNIGSNYVSWYQQHEGRSPTTMIYRDDKRPDGVPDRFSGSIDRSSDSALLTINNVQTEDEADYFCQSYSSGINIFGGGTKLTVLGQPKAAPSVTLFPPSSEELQANKATLVCLISDFYPGAVTVAWKADSSPVKAGVETTTPSKQSNNKYAASSYLSLTPEQWKSHRSYSCQVTHEGSTVEKTVAPTECS", "values": [{"measurement": "binding result", "setting": "[1]", "result": "no binding"}]}
{"binder": "AVM IgG4PE(R409K)_AVM Fab ANTIBODY (antibody) heavy 1: not shown heavy 2: EVQLVESGGGLVQPGRSLKLSCAASGFTFSNYAMAWVRRAPTKGLEWVASISNGGGNTYYRDSVKGRFTISRDDAKNTLYLQMDSLRSEDTATYYCARHGNYIYYGSFFDYWGQGVMVTVSSASTKGPSVFPLAPCSRSTSESTAALGCLVKDYFPEPVTVSWNSGALTSGVHTFPAVLQSSGLYSLSSVVTVPSSSLGTKTYTCNVDHKPSNTKVDKRV light: QFVLSQPNSVSTNLGSTVKLSCKRSTGNIGSNYVSWYQQHEGRSPTTMIYRDDKRPDGVPDRFSGSIDRSSDSALLTINNVQTEDEADYFCQSYSSGINIFGGGTKLTVLGQPKAAPSVTLFPPSSEELQANKATLVCLISDFYPGAVTVAWKADSSPVKAGVETTTPSKQSNNKYAASSYLSLTPEQWKSHRSYSCQVTHEGSTVEKTVAPTECS", "values": [{"measurement": "binding result", "setting": "[1]", "result": "no binding"}]}
{"binder": "AVM IgG4PE(R409K)_MOG01dscFv10 antibody (bispecific antibody, also called AVM IgG4PE(R409K)_MOG01dscFvlO antibody; pCI-AVM-hLG4PE(R409K)_MOG01scFv10) heavy: not shown light: QFVLSQPNSVSTNLGSTVKLSCKRSTGNIGSNYVSWYQQHEGRSPTTMIYRDDKRPDGVPDRFSGSIDRSSDSALLTINNVQTEDEADYFCQSYSSGINIFGGGTKLTVLGQPKAAPSVTLFPPSSEELQANKATLVCLISDFYPGAVTVAWKADSSPVKAGVETTTPSKQSNNKYAASSYLSLTPEQWKSHRSYSCQVTHEGSTVEKTVAPTECS", "values": [{"measurement": "binding result", "setting": "[1]", "result": "binds"}]}
{"binder": "AVM IgG4PE(R409K)_MOG01dscFv11 antibody (bispecific antibody, also called pCI-AVM-hLG4PE(R409K)_MOG01scFv11) heavy: not shown light: QFVLSQPNSVSTNLGSTVKLSCKRSTGNIGSNYVSWYQQHEGRSPTTMIYRDDKRPDGVPDRFSGSIDRSSDSALLTINNVQTEDEADYFCQSYSSGINIFGGGTKLTVLGQPKAAPSVTLFPPSSEELQANKATLVCLISDFYPGAVTVAWKADSSPVKAGVETTTPSKQSNNKYAASSYLSLTPEQWKSHRSYSCQVTHEGSTVEKTVAPTECS", "values": [{"measurement": "binding result", "setting": "[1]", "result": "binds"}]}
{"binder": "AVM IgG4PE(R409K)_MOG01dscFv9 antibody (bispecific antibody, also called pCI-AVM-hLG4PE(R409K)_MOG01scFv9) heavy: not shown light: QFVLSQPNSVSTNLGSTVKLSCKRSTGNIGSNYVSWYQQHEGRSPTTMIYRDDKRPDGVPDRFSGSIDRSSDSALLTINNVQTEDEADYFCQSYSSGINIFGGGTKLTVLGQPKAAPSVTLFPPSSEELQANKATLVCLISDFYPGAVTVAWKADSSPVKAGVETTTPSKQSNNKYAASSYLSLTPEQWKSHRSYSCQVTHEGSTVEKTVAPTECS", "values": [{"measurement": "binding result", "setting": "[1]", "result": "binds"}]}
{"binder": "AVM IgG4PE(R409K)_MOG01dscFv4 antibody (bispecific antibody, also called pCI-AVM-hLG4PE(R409K)_MOG01scFv4) heavy: not shown light: QFVLSQPNSVSTNLGSTVKLSCKRSTGNIGSNYVSWYQQHEGRSPTTMIYRDDKRPDGVPDRFSGSIDRSSDSALLTINNVQTEDEADYFCQSYSSGINIFGGGTKLTVLGQPKAAPSVTLFPPSSEELQANKATLVCLISDFYPGAVTVAWKADSSPVKAGVETTTPSKQSNNKYAASSYLSLTPEQWKSHRSYSCQVTHEGSTVEKTVAPTECS", "values": [{"measurement": "binding result", "setting": "[1]", "result": "binds"}]}
{"binder": "MOG470 (scFv phage clone similar to MOG329 antibody) (scFv) scFv: QVQLVESGGGLVQPGGSLRLSCAASGFTFSSYAMNWVRQAPGKGLEWVSAISGSGGSTYYADSVKGRFTISRDNSKNTLYLQVNSLRAEDTAVYYCARDYGGISPFDYWGQGTLVTVSSGGGGSGGRASGGGGSEIVMTQSPATLSLSPGERATLSCRASQSVSSYLAWYQQKPGQAPRLLIYDASNRATGIPARFSGSGSGTDFTLTISRLEPEDFAVYYCQQYGSSPYTFGQGTRLEIK", "values": [{"measurement": "binding result", "setting": "[2]", "result": "binds"}, {"measurement": "binding result", "setting": "[3]", "result": "binds"}]}
{"binder": "MOG308 (scFv phage clone similar to MOG310 antibody) (scFv) scFv: EVQLVQSGAEVRKSGSSVKVSCKASGGTFSRYAISWVRQAPGQGLEWMGGIIPMFSTTNYAQKFQGRVTITADESTSTAYMELSSLRSEDTAVYYCARDWAVAGMGFAYWGQGTLVTVSSGGGGSGGRASGGGGSEIVMTQSPATLSLSPGERATLSCRASQSVSSYLAWYQQKPGQAPRLLIYDASNRATGIPARFSGSGSGTDFTLTISSLEPEDFAVYYCQQRSNWPPTFGQGTKVDIK", "values": [{"measurement": "binding result", "setting": "[2]", "result": "binds"}, {"measurement": "binding result", "setting": "[3]", "result": "binds"}]}
{"binder": "MOG338 (scFv phage clone similar to MOG310 antibody) (scFv) scFv: QVQLVQSGAEVKKPGSSVKVSCKASGGTFSRYAISWVRQAPGQGLEWMGGIIPMFNTANYAQKFQGRVTITADESTSTAYMELSSLRSEDTAVYYCARDWAVAGMGFDPWGQGTLVTVSSGGGGSGGRASGGGGSEIVLTQSPATLSLSPGERATLSCRASQSVSSYLAWYQQKPGQAPRLLIYDASNRATGIPARFSGSGSGTDFTLTISSLEPEDFAVYYCQQRNNWPLTFGGGTKLEIK", "values": [{"measurement": "binding result", "setting": "[2]", "result": "binds"}, {"measurement": "binding result", "setting": "[3]", "result": "binds"}]}
{"binder": "MOG316 (scFv phage clone similar to MOG310 antibody) (scFv) scFv: EVQLVQSGAEVKKPGSSVKVSCKASGGTFSRYAISWVRQAPGQGLEWMGGIIPMFNTANYAQKFQGRVTITADESTSTAYMELSSLRSEDTAVYYCARDWAVAGMGFNYWGQGTLVTVSSGGGGSGGRASGGGGSDIQMTQSPSSLSASVGDRVTITCRASQGINSALAWYQQKPGKAPKLLIYAASSLQSGVPSRFSGSGSGTDFTLTISSLQPEDFATYYCQQYNSYPITFGQGTRLEIK", "values": [{"measurement": "binding result", "setting": "[2]", "result": "binds"}, {"measurement": "binding result", "setting": "[3]", "result": "binds"}]}
{"binder": "MOG352 (scFv phage clone similar to MOG310 antibody) (scFv) scFv: EVQLVQSGAEVKKPGSSVKVSCKASGGTFSRYAINWVRQAPGQGLEWMGGIIPMFSTVNYAQKFQGRVTITADESTSTAYMELSSLRSEDTAVYYCARDWAVAGMGFDYWGQGTLVTVSSGGGGSGGRASGGGGSAIQMTQSPSSVSASVGDRVTITCRASQGISSWLAWYQHKPGKAPKSLIYAASSLQSGVPSRFSGSGSGTDFTLTISSLQPEDFATYYCQQYNSYPLTFGGGTKVDIK", "values": [{"measurement": "binding result", "setting": "[2]", "result": "binds"}, {"measurement": "binding result", "setting": "[3]", "result": "binds"}]}
